± gives the uncertainty stated by the source.

A short description of this series: amyloid nucleation score (Sup35N fusion, yeast selection) (log enrichment); library NNK2; higher = more nucleation; inactive = no reads after selection. In a few lines:
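Yeast lacking psi expressed peptides of 20 random codons fused to Sup35N, received 100 μM copper sulfate for 24 hours, and were then grown for 7 days at 30°C on medium lacking adenine and uracil. Illumina sequencing of input and output plasmid inserts provided the reads. Nucleation scores are DiMSum log enrichments of output over input, centred on the mode of non-aggregating sequences. Any sequence with under 100 input reads was excluded.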
In the case of RFYRIDAKVAYQWAYQF, the amyloid nucleation score turned out to be 3.94 ± 0.12.

As to CVVQHSRSFVRPLLSTLQAC, the amyloid nucleation score came out at 0.453 ± 0.23. Next, IVAFARVITLMRLLADGSTV: 0.608 ± 0.54. To STPLGPFLYF belongs -0.961 ± 0.76; to TSSFEARRRGWLTDEGVLFY, 0.784 ± 0.54; to MIEKVQFQCLVIICRNGVV, 6.565 ± 0.052. VAQSRLT registered an amyloid nucleation score of 0.521 ± 0.8. On to RNAQDKESKIGTVSDSNHWV, for which the amyloid nucleation score was determined as 0.107 ± 0.36.

For the substance SIVSHKVITISMFVI, the amyloid nucleation score was 4.5 ± 0.077. Regarding GVTSRYTDSVSCGYPDSMML, the amyloid nucleation score amounted to 0.594 ± 0.45. On to DLSHNVNVCICFCWAMRYDA, for which the amyloid nucleation score turned out to be 8.342 ± 0.045. Next, GVSFSDYLSACCLDAGVSGY: 0.773 ± 0.23; CTSMGA: -0.291 ± 0.79; LSYRRFFRLILKGAVG: “inactive”. To SMFFYSFNWLQFYFRVDVHW belongs -0.311 ± 1.1. Next, ATGMIPVNLQATIWEVHEVG: 2.68 ± 0.21. VAKYLHYMSWVWRFMAWSYV: the amyloid nucleation score is -1.15 ± 1. As for VGFSNGLDFDAVFNMKCQQW, the amyloid nucleation score was -0.965 ± 0.41. NRYYYISSQGDDMQAGCFHY: the amyloid nucleation score was -0.963 ± 1.1. To GRRLKGYVTSGIEDWLKGRM belongs 0.908 ± 0.35.

Substance DWRRWM showed an amyloid nucleation score of 0.422 ± 0.5. Next, GGCCSLPLACNKKGCCYWVA: 1.84 ± 0.47; FWIEDF: -0.291 ± 1.1; ILRDDGPNYRFQIRLL: 4.647 ± 0.038.

In turn, KFSASKSDISLSSYVVIMFM gave an amyloid nucleation score of 6.186 ± 0.036. Next, GLLIGSDDLLASVICVITCS: -1.15 ± 1.1. To GSQVYPPPPMADM belongs 0.426 ± 0.3; to NYKYINVHGGYVSCLKREEE, “inactive”; to GPLGHVGLFV, “inactive”.

For the substance SVYMPSVCNKLFFRGCGYGF, the amyloid nucleation score was 3.04 ± 0.096. Substance CYTDTMARK had an amyloid nucleation score of 4.15 ± 0.047. To FCKRKVTCVVY belongs -0.538 ± 0.45; to TLGKVGHYRRNNNMPVARFD, -0.11 ± 0.74. To CYLVYFSYKLHQI belongs -1.43 ± 1.1; to RWAFTSFGSCLDKCYKYDYC, -0.913 ± 0.49; to VVHGIETIIVDPDRALVGDG, -0.356 ± 0.32. Next, IDLSTMTAGTCISYCVYCRI: 5.25 ± 0.1; CMGDNVIC: -0.954 ± 0.37. Take NCSSIF: the amyloid nucleation score result is “inactive”. In the case of RPVDPWLCRKWLVV, the amyloid nucleation score entry is “inactive”. For CRHYKFV, the amyloid nucleation score is -0.097 ± 1.1. Substance MLYYNESVINAVVYVKGRCW returned an amyloid nucleation score of -0.012 ± 1.1. Turning to CVAWKR, the amyloid nucleation score turned out to be 0.554 ± 0.48. As for WLYALWCDWSA, the amyloid nucleation score is 3.97 ± 0.061. In turn, KYCHLWCEKGMELSALSEAV came in with an amyloid nucleation score of 0.001 ± 0.76. Take SYLFIDDTVDCQLKERRYPN: the amyloid nucleation score was -0.763 ± 0.62. In turn, LVQCLLYSLWCQALSQPMYV registered an amyloid nucleation score of -0.753 ± 1. Next, IRDWHWTNVGSCNCCFFCQG: 9.244 ± 0.079; KGCVVFFRFSCNCSMICAWV: -0.668 ± 0.48; IEVGRHRWALWRVAQSRLIG: 0.308 ± 0.25. NRGEDSPSYPGCHHMKLCIC: the amyloid nucleation score entry is “inactive”. To GESNMVYCLYQGTILSFAGW belongs 8.379 ± 0.04. To NSRIL belongs “inactive”; to PRVVGGFANISMWLATGTPF, 2.94 ± 0.093; to FTVLEHRMFILSYVLRTRVW, 0.468 ± 0.74. As for DTYDSCMSSVMISFR, the amyloid nucleation score was 0.343 ± 0.51. To FSNISSSMKNKSVRGCECGR belongs -1.04 ± 0.33; to LWAYPLSMLWGKLFMDGMLL, -0.486 ± 0.27; to GASRVAPVCQTTKSLKCMAK, -1.17 ± 1.1. Next, LRYIFKMS: -1.34 ± 0.49; YREHQKVRFSSLISSIGVLM: -0.004 ± 0.49; VCVIISLHRV: 4.99 ± 0.058. CDTYNFCIL returned an amyloid nucleation score of 6.124 ± 0.035. In turn, PILYGSNGVRFV yielded an amyloid nucleation score of -1.05 ± 1.1. Next, GVPESGIFLRAHY: “inactive”; MSSASQILAHDYQNSYG: -0.383 ± 0.32; SLFLVRKDFMFCLTSLASVR: 2.07 ± 0.16. IFCCIRFLV registered an amyloid nucleation score of 6.549 ± 0.03. In turn, VCWTNSWVCNSGVLSGVGAA had an amyloid nucleation score of 1.41 ± 0.18. With ASVLTDPGVRSGRLRVCVGQ, the amyloid nucleation score is -0.121 ± 0.35. Next, SCSRLVFRRVVSGIISLCME: -0.901 ± 0.79; ASLHWKMFLMAFLTASIVHA: -0.337 ± 0.55. To DFYSNEWRGDEICVQLLELV belongs 0.393 ± 0.66. Next, SSSMSESAT: “inactive”; RGKSKYSRLGWPGNLEHKGL: 0.388 ± 0.46. Substance SPTNIRP had an amyloid nucleation score of -0.185 ± 0.47. Regarding RRYYNAQHVVVYELEVESLS, the amyloid nucleation score is 0.453 ± 0.66. Next, FTIHYAGTGCWMGMYINSDY: 2.44 ± 0.062. To DAITCGVHFAKDLNWVYIEV belongs “inactive”. To YVRAGRVNVILCVSENCIGG belongs 8.27 ± 0.049; to SFIPRLYLV, -0.016 ± 0.53. Turning to AVVGDMGIC, the amyloid nucleation score was -0.511 ± 0.63. To VNIRGTHVLVRVYSQGRNRA belongs 8.528 ± 0.062; to FKQYFSYLVGLYRS, 0.472 ± 0.8.

For YASTRRIGLEDIVW, the amyloid nucleation score is -0.821 ± 0.78. For MQIKFKS, the amyloid nucleation score is -0.38 ± 0.56.

Turning to RLSENFLRWSDVTIQSRLFG, the amyloid nucleation score came to 2.49 ± 0.15. In turn, DAMSMCP returned an amyloid nucleation score of 7.398 ± 0.061. Next, TAMFPHVRYSDTSYPAKRAV: -0.947 ± 0.41; YFGGLANKMLILSWR: 0.294 ± 0.24; SFASRYFSNKGGLHSDMCAS: “inactive”.

In the case of MSHTVITFFVCIVYSFSHCL, the amyloid nucleation score worked out at 1.86 ± 0.3. For the substance FFTANPV, the amyloid nucleation score was 0.335 ± 0.64. To TEILILMIGLIAGLYCEIRF belongs -0.231 ± 0.79; to VIGRYIDYC, -0.13 ± 0.27; to YVSNLEK, -0.073 ± 1. To DNMDFMMCKINSGLNLTLSS belongs -2.33 ± 0.62; to LSPLIAAHSTERVYWY, 0.262 ± 0.46.

As for ETRGNRPF, the amyloid nucleation score amounted to 0.88 ± 0.33. As to GIFIFNAFEEMSVGKDSELL, the amyloid nucleation score was -0.529 ± 0.27. Substance ISFLSNR displayed an amyloid nucleation score of 1.58 ± 0.27.

For the substance HWDQLV, the amyloid nucleation score is -0.504 ± 0.78. Next, FVLCT: 1.15 ± 0.33.

TYVMPSVVIKNCH: the amyloid nucleation score was -0.267 ± 0.79. ACKVYKLAMNIVLGGTGWSD returned an amyloid nucleation score of 4.8 ± 0.077. To INQFMRDFLDHLPCAYRVYN belongs -0.049 ± 0.55; to KLYSQTVSANLGVGWSSS, 2.12 ± 0.15; to TTDLYEMLWTFWSINRNSKS, -0.071 ± 0.61. To FSSLIKTICLMTAMAEGMSP belongs -0.258 ± 0.76; to HIFCRLRLAGNRLRSCLCNF, -1.16 ± 1.1. To KHIKWKDCSG belongs -0.091 ± 0.65; to SGNSENSTLVKNYFSTLSLS, -0.124 ± 0.5; to TGHLEEMYKYDALYSSAKRA, 1 ± 0.48. Regarding WVDNRWEVSLSWAGYTIF, the amyloid nucleation score entry was “inactive”.

For the substance LYRFSNST, the amyloid nucleation score is -0.968 ± 0.29.

Turning to GPVVIVDNFQYDCLA, the amyloid nucleation score is -0.109 ± 0.76. To IYLSLATCSGRRRSYSKPSR belongs 0.645 ± 0.47; to PSCRWKLHEMSTSSVQFWMK, 5.59 ± 0.064; to PAFQCMVQMKPGLWVV, -0.456 ± 0.78. Regarding DYDGTPGCVEKSTIIFMV, the amyloid nucleation score entry was “inactive”. To FILGSESNLRVSMRLFGSNW belongs 5.019 ± 0.03. As for LHSCLMCRTSMWSVSIWLKL, the amyloid nucleation score was -0.049 ± 0.74. Next, PSLMHSHLESNNTSA: -0.21 ± 0.44. Next, ISNVNLTE: -0.763 ± 0.4; CDVFMQAKIASVMGYDVQRA: -0.225 ± 0.41. To VERRVGEVRFIDAGVFGLGY belongs “inactive”; to VMYRRSACIEQDSYSNINCR, 0.025 ± 0.29. IVSEIFSG returned an amyloid nucleation score of -0.369 ± 1.1.

GLFLRSTP returned an amyloid nucleation score of -0.402 ± 0.42. As to HIVIGSFD, the amyloid nucleation score entry was “inactive”. To RFMVSRYFISGPIIVSC belongs 0.284 ± 1.1. Next, AIWVMVANSMHCCVA: 8.622 ± 0.027.

As for GSRHRDLYLGLRLYYTDVEV, the amyloid nucleation score was -0.763 ± 0.36.

VCFGIKWSMLCWYFMDGGQQ had an amyloid nucleation score of 2.05 ± 0.16. To EDRNSAFAWSSH belongs 3.54 ± 0.14; to VRVEERSVTAYRFMTKPAWW, 4.88 ± 0.096; to YMVDIGSHYKVCVMFHWTFS, -0.88 ± 0.45. The substance RRLFYRRRQHNILLAYWVWY showed an amyloid nucleation score of 0.524 ± 0.81.

For the substance SQYMVGPGKRRKKSYGVG, the amyloid nucleation score entry was “inactive”. Next, TFWNFGLAVQTARGIWALSW: 6.57 ± 0.082; FVLFENSGLFMGLDICMLCQ: 1.01 ± 0.32.
